We go through one molecule from US20240166727A1 (CEINGE BIOTECNOLOGIE AVANZATE SCARL, published 2024).

This experiment deals with Spike glycoprotein on SARS-COV-2 viral particles (Italian Variant, Genbank MT682732.1, GISAID EPI_ISL_477204) (SARS-COV-2, UniProt P0DTC2 14-1273). The experiment in a line: cell-based or functional assay.

B1: D3 mAb (fully human IgG4 anti-Spike RBD antibody) (antibody, V domains shown)
VH: QVQLVQSGAEVKKPGATVKISCKVSGYTFTDYYMHWVQQAPGKGLEWMGLVDPEDGETIYAEKFQGRVTITADTSTDTAYMELSSLRSEDTAVYYCARGAKATLGLWGQGTLVTVSR
VL: ELTQDPAVSVALGQTVRITCQGDSLRSYYASWYQQKPGQAPVLVIYGKNNRPSGIPDRFSGSSSGNTASLTITGAQAEDEADYYCNSRDSSGNHVVFGGGTKLTVL
As to B1, the “IC50 of inhibition of viral infectivity (VERO E6 cells, 0.5 MOI)” value was determined as 15 µg/mL.
